# Reference: IntAct's records for PubMed 19250911
# Target: T1, nbr1_human NBR1 (UniProt Q14596)
# T1 sequence: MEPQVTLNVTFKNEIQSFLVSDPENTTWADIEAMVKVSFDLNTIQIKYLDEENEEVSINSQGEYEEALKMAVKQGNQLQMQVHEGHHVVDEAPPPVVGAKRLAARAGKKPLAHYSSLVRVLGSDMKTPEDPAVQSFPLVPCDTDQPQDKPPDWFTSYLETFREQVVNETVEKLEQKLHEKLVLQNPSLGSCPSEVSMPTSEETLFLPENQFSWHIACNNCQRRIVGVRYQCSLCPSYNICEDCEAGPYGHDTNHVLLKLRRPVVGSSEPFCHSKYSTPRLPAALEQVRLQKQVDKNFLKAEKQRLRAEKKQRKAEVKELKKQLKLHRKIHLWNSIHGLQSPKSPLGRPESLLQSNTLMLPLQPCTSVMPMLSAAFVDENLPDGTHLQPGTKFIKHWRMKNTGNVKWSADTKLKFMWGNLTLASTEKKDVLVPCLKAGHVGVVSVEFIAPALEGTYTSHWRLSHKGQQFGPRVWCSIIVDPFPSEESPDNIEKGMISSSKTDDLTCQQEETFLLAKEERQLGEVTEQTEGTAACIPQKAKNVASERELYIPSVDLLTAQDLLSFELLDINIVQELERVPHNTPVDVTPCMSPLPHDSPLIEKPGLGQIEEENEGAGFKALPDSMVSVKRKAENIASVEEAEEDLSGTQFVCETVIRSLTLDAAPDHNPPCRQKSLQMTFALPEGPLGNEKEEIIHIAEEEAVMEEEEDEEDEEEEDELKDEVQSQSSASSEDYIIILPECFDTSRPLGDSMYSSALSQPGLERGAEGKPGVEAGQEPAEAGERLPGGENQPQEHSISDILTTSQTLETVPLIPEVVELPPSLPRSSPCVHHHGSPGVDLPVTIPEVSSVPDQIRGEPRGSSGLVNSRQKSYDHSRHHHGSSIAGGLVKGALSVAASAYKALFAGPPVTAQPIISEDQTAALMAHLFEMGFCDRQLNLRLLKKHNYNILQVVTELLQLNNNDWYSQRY
row,Substance,effect of a mutation on the interaction
1,Microtubule-associated protein 1 light chain 3 beta (Homo sapiens) (from UniProt Q9GZQ8) R10A;R11A,decreasing interaction
2,Microtubule-associated protein 1 light chain 3 beta (Homo sapiens) (from UniProt Q9GZQ8) R70A,disrupting interaction
